Experimental data from patent publication US20230143604A1, “QW DOSING OF GIP RECEPTOR AGONIST PEPTIDE COMPOUNDS AND USES THEREOF” (TAKEDA PHARMACEUTICAL COMPANY LIMITED, priority 2020, published 2023).
Starred links: 1 amine or outer side, 2 acyl side, 3 side chain; linkers in the order of their positions; H or OH if unused. Non-standard residues stand in square brackets, D forms with d. Groups on a side chain read outwards from the residue. No end group written: not given here. *: point of attachment. C18 diacid = O=C(O)CCCCCCCCCCCCCCCCC(=O)*; C17 diacid = O=C(O)CCCCCCCCCCCCCCCC(=O)*; γGlu = O=C(O)[C@H](CCC(=O)[*:2])N[*:1]; NMeY = CN[C@@H](Cc1ccc(O)cc1)C(=O)O; Stearoyl = CCCCCCCCCCCCCCCCCC(=O)*; AEEA = NCCOCCOCC(=O)O; E∗ = not defined here; K∗ = not defined here; Aib = CC(C)(N)C(=O)O

T1: full-length human GIPR with an N-terminal FLAG tag, overexpressed on HEK-293T cells (human, UniProt P48546 22-466)
T1 sequence (looked up): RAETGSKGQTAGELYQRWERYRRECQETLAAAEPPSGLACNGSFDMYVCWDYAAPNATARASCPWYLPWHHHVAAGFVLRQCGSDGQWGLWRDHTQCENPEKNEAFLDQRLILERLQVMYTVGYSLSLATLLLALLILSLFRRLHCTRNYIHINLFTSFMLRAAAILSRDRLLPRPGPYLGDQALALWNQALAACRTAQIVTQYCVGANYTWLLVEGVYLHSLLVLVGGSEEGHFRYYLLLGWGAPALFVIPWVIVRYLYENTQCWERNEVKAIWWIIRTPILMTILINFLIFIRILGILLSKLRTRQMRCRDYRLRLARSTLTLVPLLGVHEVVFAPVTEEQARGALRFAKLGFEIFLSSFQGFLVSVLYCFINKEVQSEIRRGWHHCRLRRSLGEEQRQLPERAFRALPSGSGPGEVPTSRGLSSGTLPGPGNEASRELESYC

B1: Compound No. 183 (peptide)
peptide: Me-Y[Aib]EGTFISDYSIALDR[E∗]HQ[K∗]NFVNWLLAQK([AEEA-AEEA-γGlu-C18 diacid])PSSGAPPPS-NH2
modifications: not fully specified (residue 1); reading uncertain; also: E* at 17 and K* at 20 marked, meaning not given here
B2: Compound No. 182 (peptide)
peptide: Me-Y[Aib]EGTFISDYSIALDR[Aib]HQ[E∗]NF[K∗]NWLLAQK([AEEA-AEEA-γGlu-C18 diacid])PSSGAPPPS-NH2
modifications: not fully specified (residue 1); reading uncertain; also: E* at 20 and K* at 23 marked, meaning not given here
B3: Compound No. 171 (peptide)
peptide: H-Y[Aib]EGTFISDYSI[Aib]LDKAK([AEEA-AEEA-γGlu-C18 diacid])QADFVNWLLAQRG-OH
SMILES: CC[C@H](C)[C@H](NC(=O)[C@H](Cc1ccccc1)NC(=O)[C@@H](NC(=O)CNC(=O)[C@H](CCC(=O)O)NC(=O)C(C)(C)NC(=O)[C@@H](N)Cc1ccc(O)cc1)[C@@H](C)O)C(=O)N[C@@H](CO)C(=O)N[C@@H](CC(=O)O)C(=O)N[C@@H](Cc1ccc(O)cc1)C(=O)N[C@@H](CO)C(=O)N[C@H](C(=O)NC(C)(C)C(=O)N[C@@H](CC(C)C)C(=O)N[C@@H](CC(=O)O)C(=O)N[C@@H](CCCCN)C(=O)N[C@@H](C)C(=O)N[C@@H](CCCCNC(=O)COCCOCCNC(=O)COCCOCCNC(=O)CC[C@H](NC(=O)CCCCCCCCCCCCCCCCC(=O)O)C(=O)O)C(=O)N[C@@H](CCC(N)=O)C(=O)N[C@@H](C)C(=O)N[C@@H](CC(=O)O)C(=O)N[C@@H](Cc1ccccc1)C(=O)N[C@H](C(=O)N[C@@H](CC(N)=O)C(=O)N[C@@H](Cc1c[nH]c2ccccc12)C(=O)N[C@@H](CC(C)C)C(=O)N[C@@H](CC(C)C)C(=O)N[C@@H](C)C(=O)N[C@@H](CCC(N)=O)C(=O)N[C@@H](CCCNC(=N)N)C(=O)NCC(=O)O)C(C)C)[C@@H](C)CC
B4: Compound No. 185 (peptide)
peptide: YXEGTFISDYSIALDRXHQXNFVNELLKQXPSSGAPPPS
modifications: N-terminal Me (Me-Tyr 1); Aib at 2, 17, 20; E* at 25 and K* at 28 (mark * as printed, not explained); Km at 30 = Lys(2OEGgE-C18DA); C-terminus NH2

These binders were tested against T1, full-length human GIPR with an … (assay: cell-based or functional assay).

| Binder | Human GIPR cAMP EC50, HEK293T |
| --- | --- |
| [NMeY][Aib]EGTFISDYSI[Aib]LDR[Aib]AQ[Aib]K([AEEA-AEEA-γGlu-γGlu-C18 diacid])FVNWLLAQRG-NH2 [Compound No. 204] | 0.0003 nM |
| Me-Y[Aib]EGTFISDYSIALDRAAQQK([AEEA-AEEA-γGlu-γGlu-C18 diacid])FVNWLLAQSPG-OH [Compound No. 178] | 0.0006 nM |
| B1 | 0.0007 nM |
| B2 | 0.0525 nM |
| [NMeY][Aib]EGTFISDYSIALDRIHQQNFVNWLLAQK([AEEA-AEEA-γGlu-C18 diacid])PSSGAPPPS-NH2 [Compound No. 190] | 0.0005 nM |
| Me-Y[Aib]EGTFISDYSIALDKAAQ[Aib]K([AEEA-AEEA-γGlu-γGlu-C18 diacid])FVEWLLAQRG-OH [Compound No. 174] | 0.0004 nM |
| B3 | 0.0006 nM |
| YXEGTFISDYSIAXDRIAQRNFVEWLLAQSPSSGAPPPS (N-terminal Me (Me-Tyr 1); Aib at 2; Km at 14 = Lys(G5-C18DA); C-terminus OH) [Compound No. 179] | 0.0008 nM |
| Me-Y[Aib]EGTFISDYSIALDRIAQQK([AEEA-AEEA-γGlu-γGlu-C18 diacid])FVNWLLAQSPSSGAPPPS-OH [Compound No. 177] | 0.0003 nM |
| [NMeY][Aib]EGTFISDYSIAK([AEEA-AEEA-γGlu-γGlu-C17 diacid])DR[Aib]AQ[Aib]NFVNWLLAQS-OH [Compound No. 192] | 0.0002 nM |
| Y[Aib]EGTFISDYSIAMDKK([AEEA-AEEA-γGlu-C18 diacid])HQQDFVNWLLAQKGKKNDWKHNITQ-OH [Compound No. 188] | 0.0019 nM |
| [NMeY][Aib]EGTFISDYSIALDR[Aib]HQ[Aib]NFVNWK([AEEA-AEEA-γGlu-C18 diacid])LAQR-NH2 [Compound No. 186] | 0.0003 nM |
| YXEGTFISDYSIAXDRIAQRNFVEWLLAQSPG (N-terminal Me (Me-Tyr 1); Aib at 2; Km at 14 = Lys(G5-C18DA); C-terminus OH) [Compound No. 180] | 0.0009 nM |
| B4 | 0.001 nM |
| Y[Aib]EGTFISDYSIAK([AEEA-AEEA-γGlu-C18 diacid])DKIHQQDFVNWLLAQKGKKNDWKHNITQ-OH [Compound No. 187] | 0.0032 nM |
| [NMeY][Aib]EGTFISDYSI[Aib]LDR[Aib]HQ[Aib]K([AEEA-AEEA-γGlu-γGlu-C18 diacid])FVNWLLAQRG-OH [Compound No. 201] | 0.0009 nM |
| [NMeY][Aib]EGTFISDYSIALDR[Aib]AQ[Aib]K([AEEA-AEEA-γGlu-γGlu-Stearoyl])FVNWLLAQKG-OH [Compound No. 203] | 0.0013 nM |
| Me-Y[Aib]EGTFISDYSIALDKIAQ[Aib]K([AEEA-AEEA-γGlu-γGlu-C18 diacid])FVNWLLAQRG-OH [Compound No. 175] | 0.0007 nM |
| Me-Y[Aib]EGTFISDYSIALDKIAQ[Aib]K([AEEA-AEEA-γGlu-γGlu-C18 diacid])FVEWLLAQRG-OH [Compound No. 173] | 0.0003 nM |
| H-Y[Aib]EGTFISDYSIALDRAAQ[Aib]K([AEEA-AEEA-γGlu-γGlu-C18 diacid])FVEWLLAQRG-OH [Compound No. 206] | 0.0004 nM |
| [NMeY][Aib]EGTFISDYSI[Aib]LDR[Aib]AQ[Aib]K([AEEA-γGlu-γGlu-C18 diacid])FVNWLLAQRG-OH [Compound No. 207] | 0.0004 nM |
| [NMeY][Aib]EGTFISDYSI[Aib]LDR[Aib]AQ[Aib]K([AEEA-AEEA-γGlu-γGlu-Stearoyl])FVNWLLAQRG-OH [Compound No. 202] | 0.0042 nM |
| [NMeY][Aib]EGTFISDYSIALDR[Aib]HQQNFVNWLLAQK([AEEA-AEEA-γGlu-C18 diacid]) [Compound No. 191] | 0.0032 nM |
| Me-Y[Aib]EGTFISDYSIALDKAAQ[Aib]K([AEEA-AEEA-γGlu-γGlu-C18 diacid])FVNWLLAQRG-OH [Compound No. 176] | 0.0003 nM |
| [NMeY]GEGTFISDYSI[Aib]LDR[Aib]AQ[Aib]K([AEEA-AEEA-γGlu-γGlu-C18 diacid])FVNWLLAQRG-OH [Compound No. 205] | 0.0008 nM |
| [NMeY][Aib]EGTFISDYSIALDR[Aib]AQ[Aib]K([AEEA-AEEA-γGlu-γGlu-C17 diacid])FVNWLLAQKG-OH [Compound No. 200] | 0.0006 nM |

What follows are binders tested against full-length human GLP-1R with an N-terminal FLAG tag, overexpressed on HEK-293T cells (human, UniProt P43220 24-463) (assay: cell-based or functional assay).

| Binder | Human GLP1R cAMP EC50, HEK293T |
| --- | --- |
| [NMeY][Aib]EGTFISDYSI[Aib]LDR[Aib]AQ[Aib]K([AEEA-AEEA-γGlu-γGlu-C18 diacid])FVNWLLAQRG-NH2 [Compound No. 204] | 6.61 nM |
| Me-Y[Aib]EGTFISDYSIALDRAAQQK([AEEA-AEEA-γGlu-γGlu-C18 diacid])FVNWLLAQSPG-OH [Compound No. 178] | 186 nM |
| B1 | 162 nM |
| B2 | 214 nM |
| [NMeY][Aib]EGTFISDYSIALDRIHQQNFVNWLLAQK([AEEA-AEEA-γGlu-C18 diacid])PSSGAPPPS-NH2 [Compound No. 190] | 97.7 nM |
| Me-Y[Aib]EGTFISDYSIALDKAAQ[Aib]K([AEEA-AEEA-γGlu-γGlu-C18 diacid])FVEWLLAQRG-OH [Compound No. 174] | 47.9 nM |
| B3 | 83.2 nM |
| YXEGTFISDYSIAXDRIAQRNFVEWLLAQSPSSGAPPPS (N-terminal Me (Me-Tyr 1); Aib at 2; Km at 14 = Lys(G5-C18DA); C-terminus OH) [Compound No. 179] | 2.88 nM |
| Me-Y[Aib]EGTFISDYSIALDRIAQQK([AEEA-AEEA-γGlu-γGlu-C18 diacid])FVNWLLAQSPSSGAPPPS-OH [Compound No. 177] | 100 nM |
| [NMeY][Aib]EGTFISDYSIAK([AEEA-AEEA-γGlu-γGlu-C17 diacid])DR[Aib]AQ[Aib]NFVNWLLAQS-OH [Compound No. 192] | 178 nM |
| Y[Aib]EGTFISDYSIAMDKK([AEEA-AEEA-γGlu-C18 diacid])HQQDFVNWLLAQKGKKNDWKHNITQ-OH [Compound No. 188] | 132 nM |
| [NMeY][Aib]EGTFISDYSIALDR[Aib]HQ[Aib]NFVNWK([AEEA-AEEA-γGlu-C18 diacid])LAQR-NH2 [Compound No. 186] | 1000 nM |
| YXEGTFISDYSIAXDRIAQRNFVEWLLAQSPG (N-terminal Me (Me-Tyr 1); Aib at 2; Km at 14 = Lys(G5-C18DA); C-terminus OH) [Compound No. 180] | 5.75 nM |
| B4 | 1000 nM |
| Y[Aib]EGTFISDYSIAK([AEEA-AEEA-γGlu-C18 diacid])DKIHQQDFVNWLLAQKGKKNDWKHNITQ-OH [Compound No. 187] | 562 nM |
| [NMeY][Aib]EGTFISDYSI[Aib]LDR[Aib]HQ[Aib]K([AEEA-AEEA-γGlu-γGlu-C18 diacid])FVNWLLAQRG-OH [Compound No. 201] | 61.7 nM |
| [NMeY][Aib]EGTFISDYSIALDR[Aib]AQ[Aib]K([AEEA-AEEA-γGlu-γGlu-Stearoyl])FVNWLLAQKG-OH [Compound No. 203] | 4.17 nM |
| Me-Y[Aib]EGTFISDYSIALDKIAQ[Aib]K([AEEA-AEEA-γGlu-γGlu-C18 diacid])FVNWLLAQRG-OH [Compound No. 175] | 58.9 nM |
| Me-Y[Aib]EGTFISDYSIALDKIAQ[Aib]K([AEEA-AEEA-γGlu-γGlu-C18 diacid])FVEWLLAQRG-OH [Compound No. 173] | 105 nM |
| H-Y[Aib]EGTFISDYSIALDRAAQ[Aib]K([AEEA-AEEA-γGlu-γGlu-C18 diacid])FVEWLLAQRG-OH [Compound No. 206] | 26.3 nM |
| [NMeY][Aib]EGTFISDYSI[Aib]LDR[Aib]AQ[Aib]K([AEEA-γGlu-γGlu-C18 diacid])FVNWLLAQRG-OH [Compound No. 207] | 36.3 nM |
| [NMeY][Aib]EGTFISDYSI[Aib]LDR[Aib]AQ[Aib]K([AEEA-AEEA-γGlu-γGlu-Stearoyl])FVNWLLAQRG-OH [Compound No. 202] | 2.51 nM |
| [NMeY][Aib]EGTFISDYSIALDR[Aib]HQQNFVNWLLAQK([AEEA-AEEA-γGlu-C18 diacid]) [Compound No. 191] | 97.7 nM |
| Me-Y[Aib]EGTFISDYSIALDKAAQ[Aib]K([AEEA-AEEA-γGlu-γGlu-C18 diacid])FVNWLLAQRG-OH [Compound No. 176] | 40.7 nM |
| [NMeY]GEGTFISDYSI[Aib]LDR[Aib]AQ[Aib]K([AEEA-AEEA-γGlu-γGlu-C18 diacid])FVNWLLAQRG-OH [Compound No. 205] | 33.1 nM |
| [NMeY][Aib]EGTFISDYSIALDR[Aib]AQ[Aib]K([AEEA-AEEA-γGlu-γGlu-C17 diacid])FVNWLLAQKG-OH [Compound No. 200] | 77.6 nM |
